Results: patent US20030119102A1 (Takeda / Millennium, published 2003)

B1: rat 1v (other)
chain: MPARVLLAYPGTEMLTQGESEGLQTLGIVVVLCSSLKLLHYLGLIDLSDDKIEDDLEMTMVCHRPEGLEQLEAQTNFTKRELQVLYRGFKNECPSGVVNEETFKQIYAQFFPHGDASTYAHYLFNAFDTTQTGSVKFEDFVTALSILLRGTVHEKLRWTFNLYDINKDGYINKEEMMDIVKAIYDMMGKYTYPVLKEDTPRQHVDVFFQKMDKNKDGIVTLDEFLESCQEDDNIMRSLQLFQNVM
notes: also called KChIP1; KchIP1
B2: rat 9qm (other)
chain: MRGQGRKESLSESRDLDGSYDQLTGHPPGPSKKALKQRFLKLLPCCGPQALPSVSENSVEDEFELSTVCHRPEGLEQLQEQTKFTRRELQVLYRGFKNECPSGIVNEENFKQIYSQFFPQGDSSNYATFLFNAFDTNHDGSVSFEDFVAGLSVILRGTIDDRLSWAFNLYDLNKDGCITKEEMLDIMKSIYDMMGKYTYPALREEAPREHVESFFQKMDRNKDGVVTIEEFIESCQQDENIMRSMQLFDNVI
B3: KChIP3 of rat brain membranes (other, UniProt Q9JM47 1-256, looked up)
chain: MQRTKEAMKASDGSLLGDPGRIPLSKREGIKWQRPRFTRQALMRCCLIKWILSSAAPQGSDSSDSELELSTVRHQPEGLDQLQAQTKFTKKELQSLYRGFKNECPTGLVDEDTFKLIYSQFFPQGDATTYAHFLFNAFDADGNGAIHFEDFVVGLSILLRGTVHEKLKWAFNLYDINKDGYITKEEMLAIMKSIYDMMGRHTYPILREDAPLEHVERFFQKMDRNQDGVVTIDEFLETCQKDENIMSSMQLFENVI
notes: also called PCIPs (KChIPs 1, 2, and 3)
B4: rat 33b07 (other)
chain: MNGVEGNNELPLANTSTSALVPEDLDLKQDQPLSEETDTVREMEAAGEAGAEGGASPDSEHCDPQLCLRVAENGCAAAAGEGLEDGLSSSKCGDAPLASVAANDSNKNGCQLAGPLSPAKPKTLEASGAVGLGSQMMPGPKKTKVMTTKGAISATTGKEGEAGAAMQEKKGVQKEKKAAGGGKDETRPRAPKINNCMDSLEAIDQELSNVNAQADRAFLQLERKFGRMRRLHMQRRSFIIQNIPGFWVTAFRNHPQLSPMISGQDEDMMRYMINLEVEELKHPRAGCKFKFIFQSNPYFRNEGLVKEYERRSSGRVVSLSTPIRWHRGQEPQAHIHRNREGNTIPSFFNWFSDHSLLEFDRIAEIIKGELWSNPLQYYLMGDGPRRGVRVPPRQPVESPRSFRFQSG
notes: also called partial rat 33b07 (clone name 9o)
B5: rKv1.1N (other, rat, UniProt P10499 1-164, looked up)
chain: MTVMSGENADEASAAPGHPQDGSYPRQADHDDHECCERVVINISGLRFETQLKTLAQFPNTLLGNPKKRMRYFDPLRNEYFFDRNRPSFDAILYYYQSGGRLRRPVNVPLDMFSEEIKFYELGEEAMEKFREDEGFIKEEERPLPEKEYQRQVWLLFEYPESSG
notes: Bait of the specificity test; the construct is not described; also called Kv1.1 subunits; rKvl.iN
B6: rat 29x (other)
chain: ARLPAPEHARQQPLLSGPEPGSSARVPVPGVASRRQPRGGKPPSGDGLESGPSPRPLLHARGEAGLHRQSGRVPHTGTAYFADEPTEAQAPGGFCVSPSLLGVRWPACATRTPGSLPLSPPSAQPRTLWPTPPAGPSSRMVARNQVAADNAISPASEPRRRPEPSSSSSSSSPAAPARPRPCPVVPAPAPGDTHFRTFRSHSDYRRITRTSALLDACGFYWGPLSVHGAHERLRAEPVGTFLVRDSRQRNCFFALSVKMASGPTSIRVHFQAGRFHLDGSRETFDCLFELLEHYVAAPRRMLGAPLRQRRVRPLQELCRQRIVAAVGRENLARIPLNPVLRDYLSSFPFQI
notes: Two-hybrid prey; also called SOCS-1; JAB
B7: rat 5p (other)
chain: MPSQMEHAMETMMLTFHRFAGEKNYLTKEDLRVLMEREFPGFLENQKDPLAVDKIMKDLDQCRDGKVGFQSFLSLVAGLIIACNDYFVVHMKQKK
notes: Two-hybrid prey; also called Calpactin I light chain; P10
B8: rat 7q (other)
chain: MAYAYLFKYIIIGDTGVGKSCLLLQFTDKRFQPVHDLTIGVEFGARMITIDGKQIKLQIWDTAGQESFRSITRSYYRGAAGALLVYDITRRDTFNHLTTWLEDARQHSNSNMVIMLIGNKSDLESRREVKKEEGEAFAREHGLIFMETSAKTASNVEEAFINTAKEIYEKIQEGVFDINNEANGIKIGPQHAATNASHGGNQGGQQAGGGCC
notes: Two-hybrid prey; The full length was obtained by RACE PCR; also called RAB2
B9: KChIP2 of rat brain membranes (other, UniProt Q9JM59 1-270, looked up)
chain: MRGQGRKESLSESRDLDGSYDQLTGHPPGPSKKALKQRFLKLLPCCGPQALPSVSETLAAPASLRPHRPRPLDPDSVEDEFELSTVCHRPEGLEQLQEQTKFTRRELQVLYRGFKNECPSGIVNEENFKQIYSQFFPQGDSSNYATFLFNAFDTNHDGSVSFEDFVAGLSVILRGTIDDRLSWAFNLYDLNKDGCITKEEMLDIMKSIYDMMGKYTYPALREEAPREHVESFFQKMDRNKDGVVTIEEFIESCQQDENIMRSMQLFDNVI
notes: as for B3

Assays:
[1] = target: T1, Kv2.1 (rat brain membranes) (rat, UniProt P15387 1-857); test: co-immunoprecipitation from rat brain synaptic membranes
T1 sequence (looked up): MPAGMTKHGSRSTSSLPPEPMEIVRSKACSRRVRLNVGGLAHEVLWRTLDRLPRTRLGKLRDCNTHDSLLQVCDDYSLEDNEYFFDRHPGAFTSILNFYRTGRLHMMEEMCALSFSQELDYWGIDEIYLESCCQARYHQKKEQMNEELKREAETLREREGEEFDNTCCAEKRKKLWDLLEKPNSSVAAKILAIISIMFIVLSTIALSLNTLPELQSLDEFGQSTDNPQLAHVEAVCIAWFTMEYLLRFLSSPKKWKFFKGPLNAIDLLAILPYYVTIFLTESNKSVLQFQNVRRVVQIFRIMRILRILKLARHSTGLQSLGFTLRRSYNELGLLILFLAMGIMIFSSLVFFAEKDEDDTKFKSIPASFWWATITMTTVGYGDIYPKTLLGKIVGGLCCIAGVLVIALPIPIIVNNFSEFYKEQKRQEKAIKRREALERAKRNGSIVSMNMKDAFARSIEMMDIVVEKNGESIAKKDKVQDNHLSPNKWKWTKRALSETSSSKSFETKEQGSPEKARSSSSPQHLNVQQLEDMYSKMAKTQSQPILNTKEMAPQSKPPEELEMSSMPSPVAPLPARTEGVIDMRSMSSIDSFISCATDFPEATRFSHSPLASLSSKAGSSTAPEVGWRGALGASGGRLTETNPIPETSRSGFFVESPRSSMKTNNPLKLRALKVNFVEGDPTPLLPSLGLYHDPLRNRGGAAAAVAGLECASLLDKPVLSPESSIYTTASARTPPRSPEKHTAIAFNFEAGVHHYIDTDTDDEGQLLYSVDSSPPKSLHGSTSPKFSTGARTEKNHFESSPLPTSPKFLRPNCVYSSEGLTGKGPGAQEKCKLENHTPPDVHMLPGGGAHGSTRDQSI

rat Kv4.2 α-subunit [2] = target: T2, rat Kv4.2 α-subunit (rat, UniProt Q63881 1-630); test: cell-based or functional assay
T2 sequence (looked up): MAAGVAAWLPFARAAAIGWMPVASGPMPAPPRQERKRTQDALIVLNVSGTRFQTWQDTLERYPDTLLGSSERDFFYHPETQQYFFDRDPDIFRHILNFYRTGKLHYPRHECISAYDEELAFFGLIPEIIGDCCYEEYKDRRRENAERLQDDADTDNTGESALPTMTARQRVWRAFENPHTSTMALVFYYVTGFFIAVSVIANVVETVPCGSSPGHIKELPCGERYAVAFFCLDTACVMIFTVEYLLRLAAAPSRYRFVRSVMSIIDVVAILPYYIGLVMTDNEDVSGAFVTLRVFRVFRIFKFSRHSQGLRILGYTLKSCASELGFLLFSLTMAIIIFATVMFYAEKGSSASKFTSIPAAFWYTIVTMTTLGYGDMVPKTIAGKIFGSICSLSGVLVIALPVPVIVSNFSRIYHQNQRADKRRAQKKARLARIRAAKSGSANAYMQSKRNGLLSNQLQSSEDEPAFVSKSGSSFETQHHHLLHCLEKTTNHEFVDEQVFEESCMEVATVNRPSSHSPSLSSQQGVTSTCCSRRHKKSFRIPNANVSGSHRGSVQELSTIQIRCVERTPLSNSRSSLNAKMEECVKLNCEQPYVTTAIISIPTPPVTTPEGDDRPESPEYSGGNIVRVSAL

rat Kv4.2 α-subunit [3] = target: T2, rat Kv4.2 α-subunit; test: immunoprecipitation from rat brain membranes
rKv1.1N = target: B5; test: yeast two-hybrid
rat 19r = target: T3, rat 19r (rat, UniProt P16446 1-271, limits assumed); test: yeast two-hybrid
T3 construct: also called partial rat 19r; phosphatidylinositol transfer protein alpha
T3 sequence: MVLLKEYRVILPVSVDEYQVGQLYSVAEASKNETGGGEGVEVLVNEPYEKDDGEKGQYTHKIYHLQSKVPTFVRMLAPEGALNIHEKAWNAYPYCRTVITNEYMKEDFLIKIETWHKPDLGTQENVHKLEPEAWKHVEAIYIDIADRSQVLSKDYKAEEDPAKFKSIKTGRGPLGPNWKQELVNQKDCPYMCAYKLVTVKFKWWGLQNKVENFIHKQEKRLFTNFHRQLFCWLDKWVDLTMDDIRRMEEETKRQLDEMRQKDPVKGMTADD

rat 1p = target: T4, rat 1p (rat, UniProt B9EHT4 181-427 (mouse entry), limits assumed); test: yeast two-hybrid
T4 construct: Partial-length clone, two-hybrid prey; also called Ip; lp
T4 sequence: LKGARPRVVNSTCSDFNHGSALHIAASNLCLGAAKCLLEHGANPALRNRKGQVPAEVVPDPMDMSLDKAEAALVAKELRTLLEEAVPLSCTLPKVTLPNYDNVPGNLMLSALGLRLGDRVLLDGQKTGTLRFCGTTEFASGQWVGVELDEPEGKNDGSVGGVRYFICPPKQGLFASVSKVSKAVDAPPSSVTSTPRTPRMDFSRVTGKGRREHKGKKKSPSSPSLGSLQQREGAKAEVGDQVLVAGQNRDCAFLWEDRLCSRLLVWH

rat 7s = target: T5, rat 7s (rat, UniProt P50516 348-617 (mouse entry), limits assumed); test: yeast two-hybrid
T5 construct: Partial-length clone, two-hybrid prey; Rat ortholog of the vacuolar H(+)-ATPase catalytic subunit A
T5 sequence (P50516 348-617 limits assumed): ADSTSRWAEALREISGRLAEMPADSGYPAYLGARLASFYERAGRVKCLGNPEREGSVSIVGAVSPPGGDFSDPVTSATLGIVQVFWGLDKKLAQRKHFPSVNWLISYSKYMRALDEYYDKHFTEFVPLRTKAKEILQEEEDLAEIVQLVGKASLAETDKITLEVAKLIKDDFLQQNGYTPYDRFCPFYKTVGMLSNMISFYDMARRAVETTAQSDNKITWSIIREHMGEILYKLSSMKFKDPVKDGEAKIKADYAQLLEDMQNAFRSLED

| Binder | binding result [1] | binding result (rKv1.1N) | also measured |
| --- | --- | --- | --- |
| B1 | no binding | – | Kv4.2 current density in CHO cells, fold increase with coexpression of KChIP1 (rat Kv4.2 α-subunit [2]): 12 fold; amplitude of the Kv4.2 current in CHO cells, fold increase in the presence of KChIP1 (rat Kv4.2 α-subunit [2]): ~7.5 fold |
| B2 | – | – | binding result (rat Kv4.2 α-subunit [3]): binds |
| B3 | no binding | – | – |
| B4 | – | no binding | – |
| B5 | – | – | binding result (rat 19r): no binding; binding result (rat 1p): no binding; binding result (rat 7s): no binding |
| B6 | – | no binding | – |
| B7 | – | no binding | – |
| B8 | – | no binding | – |
| B9 | no binding | – | – |
